Patent US11732048B2, “Anti-axl antagonistic antibodies” (BERGEN TEKNOLOGIOVERFØRING AS, priority 2016, dated 2023)
Entries after “also recorded” stand apart in the source; their conditions may differ.

B1: murine 10G5: mouse monoclonal anti-human Axl antibody from hybridoma WR-10G5-E5; VH SEQ ID NO: 28, VL SEQ ID NO: 29 (antibody, listed as Mus musculus, V domains shown)
VH: QVQLQQSGAELVRPGASVKLSCKASGYSFTDFYINWVRQRPGQGLEWIARIFPGGDNTYYNEKFKGKATLTAEESSSTAYIQLSSLTSEDSAVYFCARRGLYYAMDYWGQGISVTVSS
VL: DVLMTQTPLSLPVSLGDQASISCRSSQSLVHSNGIPYLHWYLQKPGQSPKLLIYRVSNRFSGVPDRFSGSGSGTDFTLKISRVEAEDLGVYFCSQGTHVPPTFGGGTKLEIK
modifications: (1)..(118) Mus musculus 10G5 VH domain; (1)..(112) Mus musculus 10G5 VL domain
B2: c10G5: chimeric (mouse variable/human constant) IgG1 antibody with the 10G5 VH and VL (antibody, V domains shown)
VH: B1 VH
VL: B1 VL

Legend:
[1] = molecular target: T1, human Axl (rhAxl-Fc chimera) (Homo sapiens, UniProt P30530); test: Biacore binding analysis on immobilised human Axl; conditions: 10 μg/mL in HBS-EP, 25° C.
T1 construct: Soluble recombinant antigens corresponding to the extracellular domains of members of the human TAM receptor family; Fc; purchased R&D Systems 154-AL
Protocol: All binding experiments were performed using Biacore 3000 instrument (GE Healthcare) at 25° C. Soluble recombinant antigens corresponding to the extracellular domains of members of the human TAM receptor family, Axl (rhAxl-Fc chimera; R&D Systems, Cat. no. 154-AL), Mer (rhMer-Fc chimera; R&D Systems, Cat. no. 891-MR) and Tyro3 (rhTyro3/Dtk-Fc chimera; R&D Systems, Cat. no. 859-DK) were immobilized on the surface of CM5 sensor chip using amine coupling at the surface density of 393.0, 303.6 and 364.0 resonance units (RU), respectively. The Biacore run was performed in an automatic mode using Binding analysis wizard. Samples containing MAb 10G5 at concentration 10 μg/mL in HBS-EP buffer (GE Healthcare) were injected over the surfaces with immobilized antigens at flow rate of 30 μL/min for 3 min (association) followed by 5 min dissociation.
The binding experiments were performed using Biacore 3000 instrument (GE Healthcare) at 25° C. The soluble recombinant antigens corresponding to human Axl (rhAxl-Fc chimera; R&D Systems, Cat. no. 154-AL), mouse Axl (rmAxl-Fc chimera; R&D Systems, R&D Systems; Cat. no. 854-AX) and human Tyro3 (rhTyro3/Dtk-Fc chimera; R&D Systems, Cat. no. 859-DK) were immobilized on the surface of CM5 sensor chip using amine coupling at the surface density of 1,308.0, 2,115.9 and 1,429.0 RU, respectively. The Biacore runs were performed in an automatic mode using Binding analysis wizard.
The sample containing MAb 10G5 or recombinant mouse (rm) Axl-ligand Gas6 (R&D Systems, Cat. no. 986-GS/CF) at concentration 10 μg/mL in HBS-EP buffer (GE Healthcare) was injected over the surfaces with immobilized antigens at flow rate of 30 μL/min for 3 min (association) followed by 5 min dissociation.
The sequence of Axl receptor from cynomolgus monkey (Macaca fascicularis; SEQ ID NO: 27) was retrieved from WO2009062690A1. Based on the sequence, recombinant extracellular domain of cyno-Axl was generated by transient expression in CHO cells as a fusion protein with human Fc. The recombinant cyno-Axl-Fc was purified to homogeneity using Protein A-Sepharose (GE Healthcare). The binding experiments were performed using Biacore 3000 instrument (GE Healthcare) at 25° C. The soluble recombinant antigens corresponding to human Axl (rhAxl-Fc chimera; R&D Systems, Cat. no. 154-AL) and cyno-Axl were immobilized on the surface of CM5 sensor chip using amine coupling at the surface density of 775 and 880 RU, respectively. The Biacore runs were performed in an automatic mode using Binding analysis wizard.
The sample containing MAb 10G5 or human Axl-specific MAb 5F11 (control) at concentration 10 μg/mL in HBS-EP buffer (GE Healthcare) was injected over the surfaces with immobilized antigens at flow rate of 30 μL/min for 3 min (association) followed by 5 min dissociation. […]

[2] = system: Axl-positive cells (MDA-MB-231); test: Flow cytometry binding to Axl-positive cells; design: species or system human
Protocol: Different concentrations of chimeric antibody was tested in flow cytometry for binding to triple-negative breast cancer cell line MDA-MB-231. The bound chimeric antibody was detected with APC-conjugated donkey F(ab′)2 fragments specific for either mouse IgG (H+L), 1:500 dilution, or human IgG (H+L), 1:300 dilution, respectively (both from Jackson ImmunoResearch). The cell staining was measured using Accuri C6 flow cytometer (BD Biosciences). MFI, geometric mean fluorescence intensity.
For flow cytometry, the adherent cells in culture were washed with PBS, detached by trypsin (0.25%) treatment for 1 min and hitting culture dish for full detachment. Trypsin was quenched by adding into the tissue flask the complete medium followed by washing the cells with PBS. […]
The purified chimeric antibodies (>95% purity) were analysed for binding to Axl-positive breast cancer cell line MDA-MB-231 in flow cytometry. […] The cell-bound antibodies were detected with APC-conjugated donkey anti-human or anti-mouse, respectively, IgG (H+L) F(ab′)2 fragments (Jackson ImmunoResearch). […]
For flow cytometry, the adherent cells in culture were washed with PBS, detached by treatment with trypsin (0.25%) for 1 min. […] The cell-bound antibodies were detected with APC-conjugated donkey anti-human IgG (H+L) F(ab′)2 fragments (Jackson ImmunoResearch Laboratories #709-136-149, 1:400 dilution). […]

| Molecule | Binding to human Axl [1] | Binding to Axl+ cells in flow cytometry (clone selection) ([2]; Example 1) | Binding to Axl-positive MDA-MB-231 cells in flow cytometry ([2]; titration of antibody, APC-conjugated secondary) |
| --- | --- | --- | --- |
| B1 | bind strongly; also recorded: specific binding; also recorded: strong and specific interaction | specific binding | – |
| B2 | binds immobilized Axl with profiles very similar to the binding profiles of the corresponding mouse antibody | – | Dose-dependent binding |
